Source: publication PMC3689669

Legend:
[1] = biological target: GST-HK10_(544–563), GST fusion of the human K10 C-terminal tail region (UniProt P13645); experiment: SPR; BIAcore X, 25°C; GST-HK10(544–563) (500 nM) captured on immobilised goat anti-GST IgG, GST alone on the reference cell; SpsD passed over in increasing concentrations, 5 µl/min; KD from equilibrium response
[2] = biological target: Canine fibrinogen (canine) (UniProt P68213); experiment: SPR; BIAcore X, 25°C; ligand covalently immobilised on CM5 chip; SpsD passed over in increasing concentrations without regeneration, 5 µl/min, PBS with 0.005% Tween 20; KD from equilibrium response against concentration
[3] = biological target: Human fibrinogen (human) (UniProt P02671); experiment: as above
[4] = biological target: Human plasma fibronectin (human); experiment: as above
[5] = biological target: α-elastin, a heterogeneous mixture of soluble peptides obtained from human lung (human); experiment: as above
[6] = biological target: GST-Fbgγ_(395–411), GST fusion of the human Fbg γ-chain sequence (human) (UniProt P02679); experiment: ELISA; GST-Fbg γ chain or GST coated on microtiter wells; increasing concentrations of SpsD167–519; detected with anti-6-His IgG
[7] = biological target: Mouse cytokeratin 10 (residues 1–570) (mouse) (UniProt P02535); experiment: ELISA; mouse K10 proteins, GST-HK10(544–563) or GST coated on wells; increasing concentrations of SpsD167–519; detected with anti-SpsD37–519 IgG
[8] = biological target: Mouse cytokeratin 10 C-terminal tail region (MK10_(454–570)) (mouse) (UniProt P02535); experiment: as above
[9] = biological target: N-terminal fragment of fibronectin (N29) containing the five N-terminal type I modules (human); experiment: ELISA; Fn (1 µg/well) and Fn fragments (250 ng/well) coated; SpsD167–519 in solution, detected with anti-SpsD37–519 antibody; FnBPB163–480 as control, detected with anti-FnBPB163–480 IgG
[10] = biological target: Recombinant fibronectin fragment, residues 1266–1908 (extra domain B plus type III modules 8–13 and the initial region of module 14) (UniProt P02751); experiment: as above
[11] = biological target: GST-HK10_(544–563), GST fusion of the human K10 C-terminal tail region (UniProt P13645); experiment: ELISA; conditions: value read at the highest concentration, 20 µM protein added; immobilized K10 (panel title GST-HK10 544-563) coated in bicarbonate buffer overnight; parent: est. 1.2; read off a plot
[12] = biological target: Human fibrinogen, P02671-2;P02675;P02679-2; experiment: ELISA; conditions: value read at the highest concentration, 16 µM protein added; immobilized human Fbg coated in bicarbonate buffer overnight; parent: est. 1.5; read off a plot
[13] = biological target: Human plasma fibronectin; experiment: ELISA; conditions: value read at the highest concentration, 20 µM protein added; immobilized Fn coated in bicarbonate buffer overnight; parent: est. 1.7; read off a plot
[14] = biological target: α-elastin, a heterogeneous mixture of soluble peptides obtained from human lung; experiment: ELISA; conditions: value read at the highest concentration, 20 µM protein added; immobilized α-elastin coated in bicarbonate buffer overnight; parent: est. 1.8; read off a plot

Sequence of GST-HK10_(544–563), GST fusion of the human K10 C-terminal tail region (P13645 544-563): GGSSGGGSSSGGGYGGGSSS
Sequence of Human fibrinogen (human) (P02671 other isoform, or with tags, fused parts or gaps, chain 1 of 3): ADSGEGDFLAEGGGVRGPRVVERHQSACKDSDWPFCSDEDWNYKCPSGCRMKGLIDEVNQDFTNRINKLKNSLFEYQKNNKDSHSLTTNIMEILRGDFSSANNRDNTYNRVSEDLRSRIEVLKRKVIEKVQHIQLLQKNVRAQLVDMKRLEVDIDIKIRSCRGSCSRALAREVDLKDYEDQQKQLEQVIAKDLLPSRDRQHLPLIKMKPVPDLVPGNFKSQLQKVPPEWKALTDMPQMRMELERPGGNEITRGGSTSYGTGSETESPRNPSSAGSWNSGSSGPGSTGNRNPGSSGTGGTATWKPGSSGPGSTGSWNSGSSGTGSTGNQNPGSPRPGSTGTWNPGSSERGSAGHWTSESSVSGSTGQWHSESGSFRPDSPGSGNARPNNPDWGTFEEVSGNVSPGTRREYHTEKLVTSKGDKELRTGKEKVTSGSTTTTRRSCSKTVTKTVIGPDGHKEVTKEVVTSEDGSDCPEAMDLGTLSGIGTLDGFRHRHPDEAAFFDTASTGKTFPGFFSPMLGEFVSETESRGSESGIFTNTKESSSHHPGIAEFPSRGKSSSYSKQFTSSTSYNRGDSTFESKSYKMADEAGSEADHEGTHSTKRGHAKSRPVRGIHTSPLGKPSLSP
Sequence of Human fibrinogen (human) (P02675 31-491, chain 2 of 3, further chain): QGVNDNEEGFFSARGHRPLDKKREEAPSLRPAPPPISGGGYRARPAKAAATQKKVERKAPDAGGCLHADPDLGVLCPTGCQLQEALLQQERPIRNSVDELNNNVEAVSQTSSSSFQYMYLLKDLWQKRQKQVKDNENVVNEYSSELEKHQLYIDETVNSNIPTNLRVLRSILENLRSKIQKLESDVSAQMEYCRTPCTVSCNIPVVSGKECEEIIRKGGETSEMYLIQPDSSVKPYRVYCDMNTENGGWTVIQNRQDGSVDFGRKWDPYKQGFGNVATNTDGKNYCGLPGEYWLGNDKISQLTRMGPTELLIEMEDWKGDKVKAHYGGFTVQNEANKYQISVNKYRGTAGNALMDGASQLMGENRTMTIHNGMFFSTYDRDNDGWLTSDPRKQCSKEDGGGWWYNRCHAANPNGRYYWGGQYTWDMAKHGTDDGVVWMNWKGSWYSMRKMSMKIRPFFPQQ
Sequence of Human fibrinogen (human) (P02679 other isoform, or with tags, fused parts or gaps, chain 3 of 3, further chain): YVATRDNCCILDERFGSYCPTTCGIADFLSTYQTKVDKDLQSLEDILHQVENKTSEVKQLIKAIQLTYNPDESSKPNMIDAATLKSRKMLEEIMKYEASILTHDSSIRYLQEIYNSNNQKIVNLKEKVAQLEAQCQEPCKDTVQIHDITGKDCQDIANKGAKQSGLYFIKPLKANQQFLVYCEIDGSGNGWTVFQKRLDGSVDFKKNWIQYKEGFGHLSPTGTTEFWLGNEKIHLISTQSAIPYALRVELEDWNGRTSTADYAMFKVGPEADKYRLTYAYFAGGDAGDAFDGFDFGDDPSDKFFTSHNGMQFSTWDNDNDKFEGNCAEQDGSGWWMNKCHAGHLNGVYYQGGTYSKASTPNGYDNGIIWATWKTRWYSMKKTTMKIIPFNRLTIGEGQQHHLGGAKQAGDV
Sequence of Recombinant fibronectin fragment, residues 1266–1908 (extra domain B plus type III modules 8–13 and the initial region of module 14) (P02751 1266-1908): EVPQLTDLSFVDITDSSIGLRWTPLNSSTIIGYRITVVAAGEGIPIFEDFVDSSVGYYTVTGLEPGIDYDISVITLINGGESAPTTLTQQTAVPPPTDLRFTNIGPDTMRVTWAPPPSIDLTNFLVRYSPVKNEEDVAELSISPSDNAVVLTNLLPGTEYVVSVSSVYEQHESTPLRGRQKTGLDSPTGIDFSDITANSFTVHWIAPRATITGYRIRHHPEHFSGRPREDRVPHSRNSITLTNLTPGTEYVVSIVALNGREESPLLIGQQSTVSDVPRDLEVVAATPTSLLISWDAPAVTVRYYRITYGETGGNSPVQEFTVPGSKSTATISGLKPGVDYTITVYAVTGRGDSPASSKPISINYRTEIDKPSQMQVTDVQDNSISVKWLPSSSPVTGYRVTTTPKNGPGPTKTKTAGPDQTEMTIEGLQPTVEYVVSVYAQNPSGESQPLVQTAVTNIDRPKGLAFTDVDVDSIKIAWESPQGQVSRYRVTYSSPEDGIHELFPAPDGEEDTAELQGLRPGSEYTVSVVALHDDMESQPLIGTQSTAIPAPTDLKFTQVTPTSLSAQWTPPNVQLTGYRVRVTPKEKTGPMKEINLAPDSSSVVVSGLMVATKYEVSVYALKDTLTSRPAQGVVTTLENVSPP
Sequence of Mouse cytokeratin 10 C-terminal tail region (MK10_(454–570)) (mouse) (P02535 454-570): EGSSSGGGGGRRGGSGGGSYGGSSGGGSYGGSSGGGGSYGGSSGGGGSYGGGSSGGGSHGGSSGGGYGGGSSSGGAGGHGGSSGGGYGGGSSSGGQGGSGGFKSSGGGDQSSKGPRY
Sequence of Mouse cytokeratin 10 (residues 1–570) (mouse) (P02535 whole entry, the tested form may be a part): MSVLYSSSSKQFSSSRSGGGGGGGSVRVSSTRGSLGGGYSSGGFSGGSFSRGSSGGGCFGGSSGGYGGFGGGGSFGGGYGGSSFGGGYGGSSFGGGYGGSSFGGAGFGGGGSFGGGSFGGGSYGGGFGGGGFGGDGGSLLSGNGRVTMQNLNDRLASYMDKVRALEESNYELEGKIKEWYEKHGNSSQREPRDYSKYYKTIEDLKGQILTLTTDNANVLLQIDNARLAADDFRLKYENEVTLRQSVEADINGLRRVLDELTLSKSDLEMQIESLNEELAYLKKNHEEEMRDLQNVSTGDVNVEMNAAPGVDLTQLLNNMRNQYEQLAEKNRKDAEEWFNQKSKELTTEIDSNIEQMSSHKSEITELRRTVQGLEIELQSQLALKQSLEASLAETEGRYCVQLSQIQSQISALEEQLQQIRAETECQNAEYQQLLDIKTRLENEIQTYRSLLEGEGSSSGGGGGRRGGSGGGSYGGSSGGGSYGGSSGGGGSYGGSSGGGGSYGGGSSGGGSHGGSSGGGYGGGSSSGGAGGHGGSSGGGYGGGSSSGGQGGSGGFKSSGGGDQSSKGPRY

| Substance | Kd [1] | Kd [2] | Kd [3] | Kd [4] | Kd [5] | EC50 [6] | EC50 [7] | EC50 [8] | EC50 [9] | EC50 [10] | response [11] | response [12] | response [13] | response [14] |
| --- | --- | --- | --- | --- | --- | --- | --- | --- | --- | --- | --- | --- | --- | --- |
| SpsD_(37–519), A domain (N1N2N3 region) of SpsD from S. pseudintermedius strain 326 (domain or fragment) | 906 nM | 367 nM | 380 nM | 2350 nM | 1200 nM |  |  |  |  |  |  |  |  |  |
| SpsD_(167–519), N2N3 subdomains of the A domain of SpsD from S. pseudintermedius strain 326 (domain or fragment) | 840 nM | 341 nM | 360 nM | 2160 nM | 1020 nM | 320 nM | 1020 nM | 1200 nM | 2210 nM | 1970 nM |  |  |  |  |
| SpsD_(167–519), N2N3 subdomains of the A domain of SpsD from S. pseudintermedius strain 326 F288A |  |  |  |  |  |  |  |  |  |  | 0.97 A490 | 0.11 A490 | 1.6 A490 | 0.67 A490 |
